Data published in the supplement of paper PMC10567573.
± gives the standard deviation.

Assay: protein stability index of a GFP-peptide fusion (GPS, HEK-293T) (PSI 1-6); higher = more stable
[1] = treatment: DMSO, c terminus: a fixed tail appended
[2] = treatment: MLN4924 1 uM, 8 h, c terminus: a fixed tail appended
[3] = treatment: DMSO, c terminus: native
[4] = treatment: MLN4924 1 uM, 8 h, c terminus: native
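Further: 24-mer peptide tiles fused after GFP, lentivirally expressed, FACS-sorted into six equal bins by GFP/DsRed ratio, decoded by Illumina sequencing, PSI is the read-weighted mean bin number.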

Sequence | protein stability index [1] | protein stability index [2] | protein stability index [3] | protein stability index [4]
HLQEYAGNFQGIRFHYDRNPGTDA [FATE1] | 3.37 ± 0.39 | 3.46 ± 0.3 | – | –
DPPLSQDERTHRSDRPFKCNQCGK [ZNF8] | 5.01 ± 0.24 | 5.11 ± 0.14 | – | –
TPLQSRTSIVQAAAGGVPGGGSNN [PDLIM7] | 4.71 ± 0.2 | 5.03 ± 0.24 | – | –
LGEVAYHDYHGILVDEEEKVLIQK [ADD1] | 4.9 ± 0.15 | 4.74 ± 0.61 | – | –
HIFAHRIYLATSSSKFYDLFLMEC [RHOBTB1] | 3.07 ± 0.6 | 2.38 ± 0.49 | – | –
DSCCPAGIFQAMCLLICAEMYQVS [RHOBTB3] | 3.07 ± 0.12 | 3.02 ± 0.31 | – | –
LPLTARWEYMHSPSENSKEAEILE [CPOX] | 4.94 ± 0.32 | 5.02 ± 0.17 | – | –
FYRYKMPRLIAKVEGKGNGIKTVI [EIF5] | 2.28 ± 0.45 | 2.26 ± 0.23 | – | –
YSGQITLLKLEQNTCSVITTLKGH [WDFY1] | 2.82 ± 0.67 | 2.38 ± 0.36 | – | –
DVTAKNIWLAESVLDILTEQREWV [INTS3] | 2.3 ± 0.24 | 2.65 ± 0.33 | – | –
KCDQPFFWNFKQMWDSKKIGLRQH [WDFY2] | 2.29 ± 0.36 | 2.65 ± 0.42 | – | –
LRADQEKERKKREERERKRRKEEE [FAF2] | 5.435 ± 0.02 | 5.35 ± 0.31 | – | –
EESASRQRFGEALQDQEKAWGFPE [ELOA2] | 5 ± 0.16 | 5 ± 0.31 | – | –
SSCSSTSGGGGGGGGGGGGGKSGG [CCDC6] | 5.17 ± 0.065 | 5 ± 0.51 | – | –
KQLRQVTKEEGLALAREFSCPFFE [RIT1] | 3.27 ± 0.29 | 3.49 ± 0.33 | – | –
EVMESEEFMLLPANQLIDIISSDE [KLHL20] | 4.54 ± 0.23 | 4.64 ± 0.32 | – | –
SSIECYDPIIDSWEVVTSMGTQRC [KLHL12] | 2.95 ± 0.2 | 3.24 ± 0.49 | – | –
PHLPRVMLPGVLAGVSAEESWAGP [SCNN1D] | 3.37 ± 0.34 | 3.4 ± 0.24 | – | –
RPMHHEDFKEDLKKFRTKSRTWAG [CDC25A] | 3.31 ± 0.22 | 3.61 ± 0.36 | – | –
NLAAMTPHDFIEHFLSKMPEAEEN [CCND1] | 4.49 ± 0.075 | 4.49 ± 0.04 | – | –
AGKQRMKEKEQENERKVAQLAEEN [DDIT3] | 5.29 ± 0.41 | 5.49 ± 0.43 | – | –
PVVKKKGVKRKADTTTPTTSAITA [BRD3] | 5.03 ± 0.29 | 5.01 ± 0.19 | – | –
GAFETVLASAYTGRLSMAAADIVN [ZBTB22] | 2.88 ± 0.61 | 2.91 ± 0.59 | – | –

Sequence | protein stability index [1] | protein stability index [2] | protein stability index [3] | protein stability index [4]
AGEGAEALARNLLVDGETGESFPA [NFE2L1] | 5.37 ± 0.09 | 5.41 ± 0.21 | – | –
MAESWLRLSGAGPAEEAGPEGGLE [FOXJ1] | 4.67 ± 0.17 | 5.01 ± 0.22 | – | –
LTDGHFENILADNSVNDQTKILVV [SERPINB5] | 3.09 ± 0.44 | 3.67 ± 0.29 | – | –
FVALKSVRVPNGGGGGGGLPISTV [CDK4] | 2.52 ± 0.24 | 2.41 ± 0.33 | – | –
HWATGYSKSSHPLIRSLFHGFLFM [SOAT1] | 2.86 ± 0.7 | 2.49 ± 0.56 | – | –
YSRYLNEKAFSYRQMAFDFARVKK [SNAP91] | 2.28 ± 0.59 | 2.7 ± 0.16 | – | –
SIAPPEAEGVVLSDSPDAADSTSF [PPTC7] | 5.34 ± 0.61 | 5.29 ± 0.76 | – | –
LKIPQVRGMDLSWESRTGDQYSYS [LCOR] | 2.87 ± 0.25 | 2.86 ± 0.31 | – | –
STTNSTAAKPAASITSKPATLTTT [ZNF207] | 4.39 ± 0.25 | 4.41 ± 0.081 | – | –
SDRRKEKDPKAGDSKSGGSGSESD [DVL3] | 5.69 ± 0.32 | 5.55 ± 0.15 | – | –
AAKLLNVDPDNVVLCLLAADEDDD [GADD45A] | 3.68 ± 0.16 | 3.94 ± 0.27 | – | –
KKRRLPPVHIHPAFARQAAQEPSA [FOXJ1] | 3.87 ± 0.25 | 3.82 ± 0.36 | – | –
TICYCPEKGTWTELEGDVAEPLAG [KLHL14] | 4.39 ± 0.18 | 4.59 ± 0.26 | – | –
CGPAEERVLLTGLHAVADIHCENC [YPEL3] | 3.25 ± 0.33 | 3.58 ± 0.67 | – | –
RADCASESACSSDSLDEARSSGSE [PWWP2B] | 5.42 ± 0.3 | 5.53 ± 0.26 | – | –
ERLCMGVDCTEIFGGNPRFLSLHR [ZNF263] | 2.54 ± 0.24 | 2.83 ± 0.13 | – | –
RGENLEHLRNKTEDLEATSEHFKT [VAMP8] | 5.43 ± 0.35 | 5.29 ± 0.12 | – | –
VNYSDPNDADKAINTLNGLKLQTK [ELAVL3] | 4.66 ± 0.2 | 4.62 ± 0.12 | – | –
LSMLLTLKCEMNQMSGEPLDKLNF [ACSBG2] | 2.83 ± 0.46 | 2.29 ± 0.16 | – | –
LSLQKEQLQLKIIEIEDEAEKWQK [TRIM29] | 3.87 ± 0.094 | 3.9 ± 0.43 | – | –
ENYDIIKTYHYLYLAMLERFQDGD [FEM1B] | 2.37 ± 0.56 | 2.52 ± 0.54 | – | –
EKKEKEKKKKDKEKEKEKHKVKAE [BRD3] | 5.41 ± 0.22 | 5.53 ± 0.42 | – | –
YNISEFTRRHPGGSRVISHYAGQD [FADS1] | 3.54 ± 0.15 | 3.42 ± 0.26 | – | –

Sequence | protein stability index [1] | protein stability index [2] | protein stability index [3] | protein stability index [4]
KYSYTSTSDDNLLKNIELFDKLAL [KCTD13] | 2.63 ± 0.42 | 2.59 ± 0.26 | – | –
RASALCDRHTKFFEEPEDPSNRSF [PPP2R2B] | 4.38 ± 0.19 | 4.49 ± 0.25 | – | –
ALKEDFGFKHRLWVYSGRRGVHCW [PRIM1] | 2.28 ± 0.65 | 2.48 ± 0.61 | – | –
VSSAVSPSIIPQEDPSQQFLQQSL [INTS4] | 4.2 ± 0.24 | 4.41 ± 0.083 | – | –
VISLEKLNVGNERYVFEAVIRWIA [GAN] | 2.38 ± 0.38 | 2.09 ± 0.29 | – | –
EDITYVLKPTFTKQQIANLDKQAK [USP39] | 4.01 ± 0.097 | 4.17 ± 0.13 | – | –
ERICSEEERAKAKHLARQLEEKDR [CHCHD3] | 5.4 ± 0.13 | 5.17 ± 0.35 | – | –
LETSGNPNGRYGSGYLLASTPESE [SLC6A17] | 4.93 ± 0.14 | 4.91 ± 0.26 | – | –
SGGSYRDSYESYGNSRSAPPTRGP [RBMX] | 4.3 ± 0.27 | 3.83 ± 0.38 | – | –
STVGKLCRLINEDVNEQVMQVLGP [CEP70] | 3.08 ± 0.19 | 3.2 ± 0.25 | – | –
LHSACGLSKDHQEVETEGPESADT [TOR1AIP2] | 5.36 ± 0.26 | 5.53 ± 0.16 | – | –
RNRGRFSSTTGLFYSAEIICAIEY [PRKX] | 2.92 ± 0.47 | 2.91 ± 0.71 | – | –
YSFRNPDVQSAIWRMLTGRRSLA [OR3A1] | – | – | 2.44 ± 0.51 | 2.65 ± 0.36
KFSIPDLDRHQLPLDDALLSFAHA [DPCD] | 2.84 ± 0.21 | 2.94 ± 0.35 | – | –
QEAKLLHWNGRHKPWDFPSVHNDL [GLT8D2] | 3.11 ± 0.19 | 2.9 ± 0.28 | – | –
QPPAITQVHRQGERRRELVRSQTL [SMTNL2] | 4.19 ± 0.39 | 4.57 ± 0.33 | – | –
HYYPKLMSIMGNVLRFLPAFVRMK [GFOD1] | 2.41 ± 0.12 | 2.24 ± 0.12 | – | –
DPTGASIALFTARLHHPHKSVQHV [PTPN9] | 2.37 ± 0.29 | 2.64 ± 0.23 | – | –
VQVSPEFKDSAGKSPTGLKLKNDT [ZNF75A] | 4.96 ± 0.23 | 4.91 ± 0.15 | – | –
ACGDFFTACLTDRGIIMTFGSGSN [NEK8] | 2.66 ± 0.83 | 2.78 ± 0.64 | – | –
QLKAVHEQLAALSQAPVNKPKKKK [BRD3] | 4.51 ± 0.44 | 4.6 ± 0.19 | – | –
DVKAMGPLVLTEVLFNEKIREQIK [EIF5] | 2.39 ± 0.11 | 2.28 ± 0.34 | – | –
KSLEIEEKINKIKWLPQQNAAHSL [PPP2R2C] | 3.66 ± 0.21 | 3.67 ± 0.13 | – | –

Sequence | protein stability index [1] | protein stability index [2] | protein stability index [3] | protein stability index [4]
TSCSLELIGDLIGHSSSVEMFLYF [WDR41] | 3.13 ± 0.88 | 2.4 ± 0.74 | – | –
PAATEAYGSGDTPGGPCDSTLGGD [TBX6] | 5.46 ± 0.25 | 5.3 ± 0.55 | – | –
SMVVPLLSLHVKSLGASPTVAGIV [MFSD9] | 2.95 ± 0.36 | 2.4 ± 0.46 | – | –
RGRPRKLSKEYWDCLEGKKSKHAP [ELF3] | 4.18 ± 0.27 | 4.19 ± 0.47 | – | –
LEELTKLQNNCTSSITRQKKRLQE [TMEM120A] | 4.81 ± 0.3 | 4.76 ± 0.31 | – | –
MSNKDRHIDSSCSSFIKTEPSSPA [ESRRG] | 4.33 ± 0.18 | 4.33 ± 0.17 | – | –
EISRGEYLYTYDSQITDSEHNSSL [ZNF8] | 4.29 ± 0.49 | 4.25 ± 0.54 | – | –
PSHGEVGEHKDRIERQWGNLLGEG [ZSCAN9] | 4.47 ± 0.19 | 4.47 ± 0.36 | – | –
AREGLAAPPRRLRSRKVSCPLTRS [FCHO1] | 3.93 ± 0.12 | 4.13 ± 0.35 | – | –
SITHYRPVSASRSSLDLSYYPTSS [EMD] | 3 ± 0.26 | 3.23 ± 0.19 | – | –
IENRDVAKSVLKERGLKKIRLGIE [BTBD10] | 3.36 ± 0.28 | 3.32 ± 0.13 | – | –
HADCDRRSRIEALELLGASFANDR [FEM1B] | 3.98 ± 0.31 | 4.17 ± 0.19 | – | –
KPTRRDASPESPSKKGPIPIRRH [GNAS] | – | – | 4.71 ± 0.19 | 5.21 ± 0.49
EDSSLPSINALLQAEVLSRQITSP [HNF4A] | 4.25 ± 0.16 | 4.27 ± 0.093 | – | –
CSSARHPAWGHCFYRLYQDLETHR [SCNN1D] | 2.15 ± 0.17 | 2 ± 0.16 | – | –
LTRPEPVHEFCAGRECQPRWETSS [ADAMTSL2] | 3.76 ± 0.15 | 3.98 ± 0.42 | – | –
TGPPCDRQWTVSDWGPCSGSCGQG [ADAMTSL2] | 3.67 ± 0.45 | 3.51 ± 0.24 | – | –
YDIAKHLTYENVERWLKELRDHAD [RAB11A] | 2.66 ± 0.36 | 2.77 ± 0.23 | – | –
NYSSSQDALISVSYTIITPLFNPM [OR10K2] | 3.07 ± 0.46 | 2.92 ± 0.33 | – | –
DSQVSEEVKTRHSEKSQREDEEEE [CHGB] | 5.75 ± 0.099 | 5.49 ± 0.21 | – | –
